The text below walks through data of the supplement of paper PMC9112550, “Optimization of the antimicrobial peptide Bac7 by deep mutational scanning” (BMC Biology, 2022).
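Further: peptides expressed intracellularly from a pBAD plasmid library in pooled LB shake-flask culture, induced with 0.3% L-arabinose, DNA abundance read by NGS, three biological replicates, DESeq2 with apeglm shrinkage.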

The series has as its system Escherichia coli TOP10. As to the kind of experiment: shrunken log2 fold change of peptide-encoding DNA abundance (4.5 h post-induction vs induction); higher = less antimicrobial activity (less host growth inhibition). Conditions: time post-induction: 4.5 h; library: site-saturation at positions 5, 18, 19, 20.
With RRIRERPPRLPRPRPRPTRHPRP, the “shrunken log2 fold change” value worked out at 0.157.
As for RRIRARPPRLPRPRPRPNSNPRP, the “shrunken log2 fold change” value was -0.0294.
With RRIRDRPPRLPRPRPRPFWVPRP, the “shrunken log2 fold change” value was -0.222.
For the sequence RRIRLRPPRLPRPRPRPVSDPRP, the “shrunken log2 fold change” value was found to be 0.128.
Turning to RRIRQRPPRLPRPRPRPVYMPRP, the “shrunken log2 fold change” value was -0.269.
RRIRPRPPRLPRPRPRPNQEPRP: the “shrunken log2 fold change” value worked out at 0.0875.
Consider RRIRHRPPRLPRPRPRPIERPRP, for which the “shrunken log2 fold change” value amounted to 0.00211.
The same measure for RRIRMRPPRLPRPRPRPPFEPRP: 0.492; for RRIRYRPPRLPRPRPRPVNYPRP: -0.458.
Regarding RRIRQRPPRLPRPRPRPDMFPRP, the “shrunken log2 fold change” value worked out at 0.0212.
The same measure for RRIRERPPRLPRPRPRPKGPPRP: 0.0237.
With RRIRYRPPRLPRPRPRPESEPRP, the “shrunken log2 fold change” value is -0.0162.
RRIRPRPPRLPRPRPRPYSFPRP: the “shrunken log2 fold change” value is -0.796.
In the case of RRIRMRPPRLPRPRPRPNWIPRP, the “shrunken log2 fold change” value was -0.118.
As to RRIRQRPPRLPRPRPRPAGEPRP, the “shrunken log2 fold change” value was 0.156.
In the case of RRIRRRPPRLPRPRPRPMKPPRP, the “shrunken log2 fold change” value was 0.0733.
Regarding RRIRMRPPRLPRPRPRPDDQPRP, the “shrunken log2 fold change” value is -0.0167.
Regarding RRIRLRPPRLPRPRPRPHKVPRP, the “shrunken log2 fold change” value was -0.18.
For RRIRGRPPRLPRPRPRPLLMPRP, the “shrunken log2 fold change” value was 1.22.
Take RRIRRRPPRLPRPRPRPHKSPRP: the “shrunken log2 fold change” value is -0.0141.
In the case of RRIRCRPPRLPRPRPRPHMYPRP, the “shrunken log2 fold change” value is -0.715.
As to RRIRPRPPRLPRPRPRPYYYPRP, the “shrunken log2 fold change” value is -0.937.
As for RRIRMRPPRLPRPRPRPATKPRP, the “shrunken log2 fold change” value was 0.103.
For RRIRMRPPRLPRPRPRPTFMPRP, the “shrunken log2 fold change” value turned out to be 0.154.
As to RRIRFRPPRLPRPRPRPKLSPRP, the “shrunken log2 fold change” value is -0.258.
RRIRGRPPRLPRPRPRPPTGPRP: the “shrunken log2 fold change” value was 0.741.
On to RRIRMRPPRLPRPRPRPLCLPRP, for which the “shrunken log2 fold change” value was -0.0538.
As for RRIRTRPPRLPRPRPRPNRPPRP, the “shrunken log2 fold change” value turned out to be 0.00512.
In the case of RRIRLRPPRLPRPRPRPLDTPRP, the “shrunken log2 fold change” value came out at 0.0486.
For RRIRNRPPRLPRPRPRPYDRPRP, the “shrunken log2 fold change” value is -0.12.
RRIRCRPPRLPRPRPRPNPHPRP: the “shrunken log2 fold change” value was -0.158.
On to RRIRCRPPRLPRPRPRPDPDPRP, for which the “shrunken log2 fold change” value was -0.141.
For the sequence RRIRNRPPRLPRPRPRPHNIPRP, the “shrunken log2 fold change” value was -0.54.
For the sequence RRIRCRPPRLPRPRPRPQGIPRP, the “shrunken log2 fold change” value was found to be 0.158.
For the sequence RRIRFRPPRLPRPRPRPMIWPRP, the “shrunken log2 fold change” value was -0.101.
Regarding RRIRFRPPRLPRPRPRPGMRPRP, the “shrunken log2 fold change” value turned out to be 0.44.
For the sequence RRIRMRPPRLPRPRPRPDTQPRP, the “shrunken log2 fold change” value came to 0.393.
As for RRIRARPPRLPRPRPRPVWGPRP, the “shrunken log2 fold change” value worked out at 0.383.
Consider RRIRFRPPRLPRPRPRPSWIPRP, for which the “shrunken log2 fold change” value was -0.177.
As to RRIRQRPPRLPRPRPRPGNCPRP, the “shrunken log2 fold change” value is -0.0905.
With RRIRCRPPRLPRPRPRPPVNPRP, the “shrunken log2 fold change” value is -0.0382.
Take RRIRARPPRLPRPRPRPFCNPRP: the “shrunken log2 fold change” value is -0.0929.
For the sequence RRIRHRPPRLPRPRPRPPSNPRP, the “shrunken log2 fold change” value stood at 0.0232.
Turning to RRIRMRPPRLPRPRPRPVINPRP, the “shrunken log2 fold change” value was -0.305.
Take RRIRARPPRLPRPRPRPKPQPRP: the “shrunken log2 fold change” value amounted to 0.533.
Take RRIRGRPPRLPRPRPRPMDKPRP: the “shrunken log2 fold change” value stood at 0.378.
The same measure for RRIRLRPPRLPRPRPRPAGNPRP: 0.116; for RRIRLRPPRLPRPRPRPSRRPRP: -0.332.
With RRIRKRPPRLPRPRPRPHEAPRP, the “shrunken log2 fold change” value was -0.022.
The result for RRIRKRPPRLPRPRPRPTFPPRP reads 0.0736.
